Laboratory results: patent US20030207290A1 (MESO SCALE TECHNOLOGIES, published 2003)
Where no end group is shown, it is not given here. [ ]: non-standard residue; d: D form. pS = N[C@@H](COP(=O)(O)O)C(=O)O

B1: βTRCP2 (EST clone IMAGE 4237375), in vitro translated, biotin-labelled (other, human, UniProt Q9UKB1 1-542, looked up)
chain: MEPDSVIEDKTIELMCSVPRSLWLGCANLVESMCALSCLQSMPSVRCLQISNGTSSVIVSRKRPSEGNYQKEKDLCIKYFDQWSESDQVEFVEHLISRMCHYQHGHINSYLKPMLQRDFITALPEQGLDHIAENILSYLDARSLCAAELVCKEWQRVISEGMLWKKLIERMVRTDPLWKGLSERRGWDQYLFKNRPTDGPPNSFYRSLYPKIIQDIETIESNWRCGRHNLQRIQCRSENSKGVYCLQYDDEKIISGLRDNSIKIWDKTSLECLKVLTGHTGSVLCLQYDERVIVTGSSDSTVRVWDVNTGEVLNTLIHHNEAVLHLRFSNGLMVTCSKDRSIAVWDMASATDITLRRVLVGHRAAVNVVDFDDKYIVSASGDRTIKVWSTSTCEFVRTLNGHKRGIACLQYRDRLVVSGSSDNTIRLWDIECGACLRVLEGHEELVRCIRFDNKRIVSGAYDGKIKVWDLQAALDPRAPASTLCLRTLVEHSGRVFRLQFDEFQIISSSHDDTILIWDFLNVPPSAQNETRSPSRTYTYISR
modifications: biotin on some lysine residues (incorporated at random from biotin-Lys-tRNA)
notes: Product of a coupled transcription/translation reaction, used without purification; also called βTRCP [c]; bTRCP2
B2: IkBa phosphopeptide (IkBa-24pp), LKKERLLDDRHD(p)SGLD(p)SMKDEEYC (peptide)
peptide: LKKERLLDDRHD[pS]GLD[pS]MKDEEYC
modifications: not fully specified (residue 24); also: C-terminal Cys coupled to maleimide-activated BSA
notes: Chemically synthesized; the peptide-BSA conjugate was deposited on the electrode; also called IkBa peptide; IkBa-24ppC
B3: Shc1 (EST clone IMAGE 3907115), in vitro translated, biotin-labelled (other, UniProt P29353-2 1-473, looked up)
chain: MNKLSGGGGRRTRVEGGQLGGEEWTRHGSFVNKPTRGWLHPNDKVMGPGVSYLVRYMGCVEVLQSMRALDFNTRTQVTREAISLVCEAVPGAKGATRRRKPCSRPLSSILGRSNLKFAGMPITLTVSTSSLNLMAADCKQIIANHHMQSISFASGGDPDTAEYVAYVAKDPVNQRACHILECPEGLAQDVISTIGQAFELRFKQYLRNPPKLVTPHDRMAGFDGSAWDEEEEEPPDHQYYNDFPGKEPPLGGVVDMRLREGAAPGAARPTAPNAQTPSHLGATLPVGQPVGGDPEVRKQMPPPPPCPGRELFDDPSYVNVQNLDKARQAVGGAGPPNPAINGSAPRDLFDMKPFEDALRVPPPPQSVSMAEQLRGEPWFHGKLSRREAEALLQLNGDFLVRESTTTPGQYVLTGLQSGQPKHLLLVDPEGVVRTKDHRFESVSHLISYHMDNHLPIISAGSELCLQQPVERKL
modifications: biotin on some lysine residues (incorporated at random from biotin-Lys-tRNA)
B4: βTRCP1 (EST clone IMAGE 3491843), in vitro translated, biotin-labelled (other, human, UniProt Q9Y297 1-605, looked up)
chain: MDPAEAVLQEKALKFMCSMPRSLWLGCSSLADSMPSLRCLYNPGTGALTAFQNSSEREDCNNGEPPRKIIPEKNSLRQTYNSCARLCLNQETVCLASTAMKTENCVAKTKLANGTSSMIVPKQRKLSASYEKEKELCVKYFEQWSESDQVEFVEHLISQMCHYQHGHINSYLKPMLQRDFITALPARGLDHIAENILSYLDAKSLCAAELVCKEWYRVTSDGMLWKKLIERMVRTDSLWRGLAERRGWGQYLFKNKPPDGNAPPNSFYRALYPKIIQDIETIESNWRCGRHSLQRIHCRSETSKGVYCLQYDDQKIVSGLRDNTIKIWDKNTLECKRILTGHTGSVLCLQYDERVIITGSSDSTVRVWDVNTGEMLNTLIHHCEAVLHLRFNNGMMVTCSKDRSIAVWDMASPTDITLRRVLVGHRAAVNVVDFDDKYIVSASGDRTIKVWNTSTCEFVRTLNGHKRGIACLQYRDRLVVSGSSDNTIRLWDIECGACLRVLEGHEELVRCIRFDNKRIVSGAYDGKIKVWDLVAALDPRAPAGTLCLRTLVEHSGRVFRLQFDEFQIVSSSHDDTILIWDFLNDPAAQAEPPRSPSRTYTYISR
modifications: biotin on some lysine residues (incorporated at random from biotin-Lys-tRNA)
notes: Product of a coupled transcription/translation reaction, used without purification; the text speaks of the genes in the human genome and of full-length cDNAs; also called βTRCP [c]; bTRCP1
B5: Phospholipase C gamma 1 (PLCγ) (EST clone IMAGE 4419252), in vitro translated, biotin-labelled (enzyme, UniProt P19174 1-1290, looked up)
chain: MAGAASPCANGCGPGAPSDAEVLHLCRSLEVGTVMTLFYSKKSQRPERKTFQVKLETRQITWSRGADKIEGAIDIREIKEIRPGKTSRDFDRYQEDPAFRPDQSHCFVILYGMEFRLKTLSLQATSEDEVNMWIKGLTWLMEDTLQAPTPLQIERWLRKQFYSVDRNREDRISAKDLKNMLSQVNYRVPNMRFLRERLTDLEQRSGDITYGQFAQLYRSLMYSAQKTMDLPFLEASTLRAGERPELCRVSLPEFQQFLLDYQGELWAVDRLQVQEFMLSFLRDPLREIEEPYFFLDEFVTFLFSKENSVWNSQLDAVCPDTMNNPLSHYWISSSHNTYLTGDQFSSESSLEAYARCLRMGCRCIELDCWDGPDGMPVIYHGHTLTTKIKFSDVLHTIKEHAFVASEYPVILSIEDHCSIAQQRNMAQYFKKVLGDTLLTKPVEISADGLPSPNQLKRKILIKHKKLAEGSAYEEVPTSMMYSENDISNSIKNGILYLEDPVNHEWYPHYFVLTSSKIYYSEETSSDQGNEDEEEPKEVSSSTELHSNEKWFHGKLGAGRDGRHIAERLLTEYCIETGAPDGSFLVRESETFVGDYTLSFWRNGKVQHCRIHSRQDAGTPKFFLTDNLVFDSLYDLITHYQQVPLRCNEFEMRLSEPVPQTNAHESKEWYHASLTRAQAEHMLMRVPRDGAFLVRKRNEPNSYAISFRAEGKIKHCRVQQEGQTVMLGNSEFDSLVDLISYYEKHPLYRKMKLRYPINEEALEKIGTAEPDYGALYEGRNPGFYVEANPMPTFKCAVKALFDYKAQREDELTFIKSAIIQNVEKQEGGWWRGDYGGKKQLWFPSNYVEEMVNPVALEPEREHLDENSPLGDLLRGVLDVPACQIAIRPEGKNNRLFVFSISMASVAHWSLDVAADSQEELQDWVKKIREVAQTADARLTEGKIMERRKKIALELSELVVYCRPVPFDEEKIGTERACYRDMSSFPETKAEKYVNKAKGKKFLQYNRLQLSRIYPKGQRLDSSNYDPLPMWICGSQLVALNFQTPDKPMQMNQALFMTGRHCGYVLQPSTMRDEAFDPFDKSSLRGLEPCAISIEVLGARHLPKNGRGIVCPFVEIEVAGAEYDSTKQKTEFVVDNGLNPVWPAKPFHFQISNPEFAFLRFVVYEEDMFSDQNFLAQATFPVKGLKTGYRAVPLKNNYSEDLELASLLIKIDIFPAKENGDLSPFSGTSLRERGSDASGQLFHGRAREGSFESRYQQPFEDFRISQEHLADHFDSRERRAPRRTRVNGDNRL
modifications: biotin on some lysine residues (incorporated at random from biotin-Lys-tRNA)
notes: also called PLCg

Tests used:
[1] = molecular target: T1, EGFR-pY992 phosphopeptide, DADE(p)YLIPQQGFFSSPSTSC (phosphotyrosine at (p)Y (residue 5 of the printed peptide; EGFR Tyr992)); experiment: ECL 7-spot plate screen, peptide-BSA spot, biotinylated TnT protein, Ru-streptavidin; signal normalized in two steps
T1 construct: also called EGFR-pTyr992
T1 peptide: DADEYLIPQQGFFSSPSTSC

[2] = molecular target: T1, EGFR-pY992 phosphopeptide, …; experiment: ECL 4-spot multi-array binding assay: peptide-BSA spot, biotinylated TnT protein, Sulfo-TAG streptavidin
[3] = molecular target: B3; experiment: ECL plate binding assay, peptide-BSA on electrode
[4] = molecular target: B5; experiment: ECL plate binding assay, peptide-BSA on electrode
[5] = molecular target: T2, c-Myc phosphopeptide (Myc-p58Tp62S), …(p)TPPL(p)SPSRRSGL (phosphothreonine and phosphoserine in P(p)TPPL(p)S (residues 15 and 19 of the printed peptide)); experiment: ECL plate binding assay: peptide-BSA on electrode, biotinylated TnT protein, Sulfo-TAG streptavidin
T2 construct: Chemically synthesized; control peptide; also called c-Myc peptide
T2 sequence (peptide, as listed by the source): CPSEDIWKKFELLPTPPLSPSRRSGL
Method: (§1) Also included were three other non specific EST clones as controls (Incyte, Palo alto, Calif.). […] Proteins were transferred into wells of the peptide-coated and BSA-blocked IPR plates. Sulfo-TAG labeled streptavidin (50 to 100 ng/well) was added to each well as the detection agent. […] The ECL signals were measured using an imaging plate reader (IPR).

[6] = molecular target: B2; experiment: as above
Method: as §1

[7] = molecular target: B2; experiment: ECL 4-spot multi-array binding assay: peptide-BSA spot, biotinylated TnT protein, Sulfo-TAG streptavidin

## B1
[1]
  normalized ECL signal: 1
[2]
  ECL signal: 60 ECL signal

## B2
[3]
  binding result: no binding
[4]
  binding result: no binding

## B3
[5]
  Average ECL signal: 341 ECL signal
[6]
  Average ECL signal: 368 ECL signal

## B4
[1]
  normalized ECL signal: 1
[2]
  ECL signal: 54 ECL signal

## B5
[5]
  Average ECL signal: 316 ECL signal
[6]
  Average ECL signal: 341 ECL signal
[7]
  ECL signal: 26 ECL signal
